These results are taken from a protein production outcome set (Wang et al. 2014).

This data set in a line: label from the status in PepcDB records.
In the case of “MAAPGGRGRSLSGLLPAQTSLEYALLDAVTQQEKDSLVYQYLQKVDGWEQDLSVPEFPEGLEWLNTEEPISVYKDLCGKIVVLDFFTYCCINCIHLLPDLHALEHTYSDKDGLLIIGVHSAKFPNEKVLDNIKSAVLRYNITHPMVNDADASLWQELEVSCWPTLVILGPRGNMLFSLIGEGHKDKLFLYTSIALKYYKDRGQIRDNKIGIKLYKDSLPPSPLLFPGKVTVDQVTDRLVIADTGHHRILVVWKNGQIQYSIGGPNPGRKDGIFSESTFNSPQGVAIMNNIIYVADTENHLIRKIDLEAEKVSTVAGIGIQGTDKEGGAKGEQQPISSPWDVVFGTSGSEVQRGDILWIAMAGTHQIWALLLDSGKLPKKNELTKGTCLRFAGSGNEENRNNAYPHKAGFAQPSGLSLASEDPWSCLFVADSESSTVRTVSLKDGAVKHLVGGERDPMNLFAFGDVDGVGINAKLQHPLGVTWDKKRNLLYVADSYNHKIKVVDPKTKNCTTLAGTGDTNNVTSSSFTESTFNEPGGLCIGENGELLYVADTNNHQIKVMDLETKMVSVLPIFRSENAVVDGPFLVEKQKTLPKLPKSAPSIRLSPVTACAGQTLQFKLRLDLPSGSKLTEGVSSCWFLTAEGNEWLLQGQIAAGDIENISSQPTISLQIPDDCLSLEAIVSVSVFLYYCSADSSACMMKAILFSQPLQITDTQQGCIAPVELRYVF”, the protein production result is “failed”.
Next, “MAAPRPGPLRPARGFAPMNNVNGILLVVAAMAAFSIEDMFIKKLSVTVPIGQILLVLGVFCSAAFLTMAVATRKRVFSRAAWSPLLLIRAATEAVSALTFATALSLVDLSTVAAVFQAMPLVVTMGAALFLGEQVGWRRWSAITVGFVGVLMIIRPGMAGFQPAQLLVVASVISVAARDLITRRIDAHVASAVVSFQAYLALILGGAGILLVSGTALVPVEPGHWGPYAGAILFGVLGYYGIVTAMRVGEASVVTPFRYTRLLFSLLAGVLVFGERPDWPTLAGGALIIGSGLYTFLRERRLARELAAVPA”: “failed”; “MAAPRVIMAAPRVIMAAITGVTPEVVNRTRPERRDLADMRAAMKTGFTAVASVIGVGVAGLAYGVIEAHRFVVRHVEVPVLKPGSSPLRILHMSDLHLLARQETKRRFIRQLDALNPDLVINTGDNFCSADSLQPLLDDMSGLLQRPGTFVFGSNDYLVPKFKNPFSYLLWGRSQQATEPVPELPHEELRQAFTSAGWLDLNDKSETLEVAGHRLTLRGTDDAHHDRDHYEEVAGPPDGEADLNIGVTHAPYLKILDAMVSDGMDIVFAGHTHGGQVCLPFTGAIITNCDLDTERAKGLSQHGRGGHTGWLHVSAGLGCSPFAPYRTFCRPEATLLTLVPRP”: “failed”; “MAAPSVPTPLYGHVGRGAFSDVYEPAEDTFLLLDALEAAAAELAGVELCLEVGAGSGVVSAFLASMIGPQALYMCTDINPKAAACTLETARCNRVHLQPVITDLVQGLLPRLKGKVDLLVFNPPYVVTPPEEVGSHGIEAAWAGGRNGREVMDRFFPLASQLLSPRGLFYLVTIKENNPVLPRSYGNAANVPELGSGQLGENLLAFKSNIGGLSKGKLYH”: “failed”.
Next, “MAAPVVVAPAINLQHMDLPEGNEDVAAVLQTSTQRWLNAAEWSILYNNHNLFPESNSFTIPIEVEGLYRVDNRFNQDSNTWRNTSAPSTCKNAINFYNVRIATGLYRFDDDGDIVMDAEVQGGWVLCRKTVRNRGHCGTRLSHLYKPVFDRQFKMLKIHMMEDMIKDGEEKSLDTFVISRQLTTFTDLTGWAFGSSVIVEFKVRLEHLRGKSIPIA”: “failed”.
The same measure for “MAARAWVVAVVGFFVMWLMFQVVGWVIGVIWGVWQQLDQATAGTMIEPPQDWKNMLNSLYSNMLGIWNYLPVVVLLSAVVYIIIESLRRRPEEYYV”: “failed”; for “MAARDPEATKARIFEAAVAEFARHGIAGARIDRIAAEARANKQLIYAYYGNKGELFASVLEKKMLDLAISVPVDPDDIEGWIDRLLDYHAAHPELLRLLFWEGMEYGTAELPHEAERQEHYARKVAAVRDGQERGVITDAIPAPDLLFLLVAMANWAVVVPQMKRILVGGGDAGTDGLRDSIKKAARRIVDR”: “not failed”.
Regarding “MAARRAPISRRDRPAKPALSRRWIVDTAVALMRAEGLEKVTMRRLAQELDTGPASLYVYVANTAELHAAVLDALLGEVDLTGAGAEEDWREQLRAVLTSYTLVLFAHPQLARSALVARPSGENYLRLVERVLELLARSGAPGAQVAWGVDKLLQDATATAAEQATQEHDPASHEDWSATVRALRDADEATHPAIASHMPLLVAGSAHDRLRWSFDVLVNGITRTPVPGPARGAAG”, the protein production result was “not failed”.
Next, “MAASAHGSVWGPLRLGIPGLCCRRPPLGLYARMRRLPGPEVSGRSVAAASGPGAWGTDHYCLELLRKRDYEGYLCSLLLPAESRSSVFALRAFNVELARVKDSVSEKTIGLMRMQFWKKTVEDIYCDNPPHQPVAIELWKAVKRHNLTKRWLMKIVDEREKNLDDKAYRNIKELENYAENTQSSLLYLTLEILGIKDLHADHAASHIGKAQGIVTCLRATPYHGSRRKVFLPMDICMLHGVSQEDFLRRNQDKNVRDVIYDIASQAHLHLKHARSFHKTVPVKAFPAFLQTVSLEDFLKKIQRVDFDIFHPSLQQKNTLLPLYLYIQSWRKTY”: “failed”; “MAATRLKRRKFPTINEEFYYNQLENGMTVFLIPKESFKETLAVMSSRFGSIDTNFTVNGKKKSYLAGIAHLLEHQLFEMNKQKDAAYEFTKLGAESNAYTTFDKTIYYFSTADNIKKNLDLLQEFTSQINFTDMSIEKEKKIITQEFNMYQDDSDDYLYQVILSKLYPQTSLAEDITGNRDSIDKLTKNNLEENFHYFYQPENLTLLVAGDFDVKRVYKDIVTTQRQLPDRP”: “failed”.
The same measure for “MAAVPPENGVDGDDEREEEEEDEEEEEEEEEEENGDEAEEEPRLKYQRMGGNVPALLSNDAASCIAVAARMIALGTHDGTVRILDLLGNQVKEFRAHTAPVNDINFDTEGEYIGSCSDDGSVVINSLFTDDEKMKFDYHRPMKAISLDPDYTKKQSKRFVAGGLAGHLYMNSKKWFGNKDQVLHSGEGPIHSVKWRGSLIAWANDVGVKVYDTAKDQRVTFIEKPRGSPRPEALLPHLVWQDDTLLVIGWGTSVKIASIKSDQQQTGTFRQIQMSSLTQVDIVASFQTSYYISGIAPFGDSLVILAYIPIEGDGEKEFSSTTTLSRQGNAQRPEIRIVSWNNDELTMDALPVHGFEHYKAKDYSLAHAPFPGSSYAGGQWAAGDEPLYYIVSPKDVVIAKPRDAEDHINWLLQHGFHEKALAAVEASEGRTELIDKVGAGYLDHLIVERKYAEAASLCPKLLRGSASAWERWVFHFAQLRQLPVLVPYMPTDNPRLKDTVYEVALVALATNPSYHKELLSAVKSWPRSVYSALTVISAIEPQLNTSSMTDALKEALAELYVIDGQYQKAFSLYADLLKPEVFDFIEKYSLHEAIRGKVVQLMLLDCKRATVLFIQNRDLIPPSEVVPQLLKAGKNPQVLKAGKKCDSRYYLYLYLHALFEVSHDTGKDFHDMQVELYAEYDTKMLLPFLRSSQHYKLEKAYELCVKKDFLREQVFVLGRMGNAKQALAVIINKLGDIEEAVEFVSMQHDDDLWEELIKQCLNKPEMVGLLLEHTVGNLDPLYIVNMVPNGLEIPRLRDRLVKIVTDYRTETSLRHGCNDILKTDIVNLLVKCFNEARRGVCLSHEDDDSRAKREDNNRSSFSQRMVVDKSLSIKMTEVKSKTRGDTRCCMCFDPVSIRGDTVVVFFCCHAYHETCLMDAAFSNNNHKTTKGSSGYEYSYDNGVDEEEEDEEEDEDGDGDRPGRSRLRCILCTTAAAASAR”: “failed”; for “MAAVVAATALKSRGARNARVLRGILAGATANKVSHNRTRALQSHSSSEGKEEPEPLSPELEYIPRKRGKNPMKAVGLAWYSLYTRTWLGYLFYRQQLRRARNRYPKGHSKTQPRLFNGVKVLPIPVLSDNYSYLIIDTQAQLAVAVDPSDPRAVQASIEKEGVTLVAILCTHKHWDHSGGNRDLSRRHRDCRVYGSPQDGIPYLTHPLCHQDVVSVGRLQIRALATPGHTQGHLVYLLDGEPYKGPSCLFSGDLLFLSGCGRTFEGNAETMLSSLDTVLGLGDDTLLWPGHEYAEENLGFAGVVEPENLARERKMQWVQRQRLERKGTCPSTLGEERSYNPFLRTHCLALQEALGPGPGPTGDDDYSRAQLLEELRRLKDMHKSK”: “failed”.
As to “MACFSGTVYLVACRFRSRGNSMPYKISQYVLDDATPDDSGIVQGDMDVFIHQLMTLMEASQQGYALFDGNDELRFANSAFRAALGIGRHEFPSWVDMMRSGYRTTTGTSIETSDFELWLRSAKTRRGKLPFRTIETSLKDGRWMLTTETTLPGGWMLCVITDVSELGIELRDLRQERDRALKSALSDELTGLGNRRYAMDTLNHLLGPNKAQALAVIIMDIDHFKSVNDRFGHAYGDLVLKDFAARLSATAGRDDLLGRIGGEEFLLVLSGSRMHSADSLMRQLLSSLAQASPLGDRPDFRYSCSAGIAYANPGESASEVLRHADTALYEAKNTGRNRYVIYATVP”, the protein production entry is listed as “failed”.
Take “MACGATLKRPMEFEAALLSPGSPKRRRCAPLPGPTPGLRPPDAEPPPLQMQTPPASLQQPAPPGSERRLPTPEQIFQNIKQEYNRYQRWRHLEVVLSQSEACTSETQPSSSALTAPGSPGAFWMKKDQPTFTLRQVGIICERLLKDYEDKVREEYEQILSTKLAEQYESFVKFTHDQIMRRYGTRPTSYVS”: the protein production result is given as “failed”.
Next, “MACGEFSLIARYFDRVRSSRLDVELGIGDDCALLNIPEKQTLAISTDTLVAGNHFLPDIDPADLAYKALAVNLSDLAAMGADPAWLTLALTLPDVDEAWLESFSDSLFDLLNYYDMQLIGGDTTRGPLSMTLGIHGFVPMGRALTRSGAKPGDWIYVTGTPGDSAAGLAILQNRLQVADAKDADYLIKRHLRPSPRILQGQALRDLANSAIDLSDGLISDLGHIVKASDCGARIDLALLPFSDALSRHVVPEQALRWALSGGEDYELCFTVPELNRGALDVALGHLGVPFTCIGQMTADIEGLCFIRDGEPVTLDWKGYDHFATP”: “not failed”; “MACGKGHDIMEVASPYGWKKNPQKVLDFYNQRRRQLFEVYPNKAHKALAELEKHYQVNIITQNVDDLHERAGSSRILHLHGELLSVRSEKDPNLVYRWEKDLNLGDLAKDKSQLRPDIVWFGEAVPLLKEAISLVKQAHLLIIIGTSLQVYPAASLYTHAHKDALIYYIDPKAKNAHLPQNVQCINESAVHAMQDLMPKLIEMAS”: “failed”.
As for “MACSRFERQNMFKLCLDFTQKRAPMSQKQPINLVLSGGGTRAIGHLAIISALLERGFEIRAISGSSGGAIVGSLLASGKSPKECYDLLLKTNFVRLFAFKMSQGGLFHLKRGEAYLEKILGIKEFSELSLPLYVCVVDLKEGRPFFLSEGNIAKAVIASSSISPFMRPVEMEGRMGADGGIMNNLPIEPFLEENLPIIGINVNPNRPFHSHSMVSIAKRALFLQFYSNILERSKLCSLYLEPSGIDAYTIYDLKSLESVYNLCQEWCETNLDALIGDVPLHVLRP”, the protein production result is listed as “failed”.
On to “MADEMMVKELEEVVVRFSGDSGDGMQLAGNIFSNVSATVGNDICTFPDYPADIRAPQGSLTGVSGFQVHVGASKIFTPGDHCHVLVAMNPAALKTQIKFCKPQGLVITDSDSFGEKDLEKAQFKTGNPFEEMGITQQVLEVPISSMCKESLKNSGLDNKAMLRCKNMFALGLVCWLFNRNLSAAEKMLNEKFAKKPEIAAANIKVLNDGYNYGANTHASTSTYKIESKTPKAAGLYTDINGNKATSYGLIAAAEKAGLELYLGSYPITPATDILHELAKHKSLGVKTVQCEDEIAGCASAVGAAFAGDLAVTTTSGPGVCLKSEAMNLAVIAELPLVVVNVQRGGPSTGMPTKSEQTDLLQALYGRNGESPMPVIAATSPTNCFDAAYMAAKIALEHMTPVVLLTDAFIANGSAAWKLPNMDEYPAINPPYVTPDMIGTWTPFQRNEKTGVRYWAVPGTEGFMHRIGGLEKSSETGVISTEPENHQKMTLLRQAKVDKIADSIPEQEVQGDADADLLVVGWGGTYGHLYSAVEHMRKNGKKVALAHFQYINPLPKNTAEILKKYKKIVVAEQNLGQFAGYLRMKVPGLNISQFNQVKGQPFVTRELVEAFTKLLEE”, for which the protein production result was “not failed”.
